# Measurements from article PMC8091058, “Distinct intramolecular interactions regulate autoinhibition of vinculin binding in αT-catenin and αE-catenin” (The Journal of Biological Chemistry, 2021).
# Assays:
# Details in all cases: both partners purified
# vinculin D1 (aa 1–259) = target: T1, vinculin D1 (aa 1–259) (UniProt P12003 1-259); experiment: ITC; vinculin D1 injected into αT-catenin or αE-catenin fragment (or αT-catenin head–β-catenin complex) in the cell; 25 °C; 20 mM Hepes pH 8.0, 150 mM NaCl, 1 mM TCEP
# T1 construct: vinculin D1 fragment, aa 1-259, the first 2 four-helix bundles; in pGEX-TEV; also called vinculin aa 1 to 259 (D1); vinculin N-terminus; source: E. coli BL21-Gold, purified (glutathione-agarose, TEV cleavage, Mono Q or Mono S, S200)
# T1 sequence (looked up): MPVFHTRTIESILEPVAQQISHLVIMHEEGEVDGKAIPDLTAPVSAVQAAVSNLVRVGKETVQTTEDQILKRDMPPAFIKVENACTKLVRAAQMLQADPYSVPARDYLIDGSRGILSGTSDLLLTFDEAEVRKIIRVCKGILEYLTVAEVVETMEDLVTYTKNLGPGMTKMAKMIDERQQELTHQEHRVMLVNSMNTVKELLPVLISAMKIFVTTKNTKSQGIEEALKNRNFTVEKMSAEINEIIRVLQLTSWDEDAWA
# [1] = target: T2, αT-catenin N1-N2 (aa 1–259) (Mus musculus, UniProt Q65CL1 1-259); experiment: ITC; β-catenin (110-150 μM) or β-catenin–Ncad_(cyto) complex (103-158 μM) injected into αT-catenin fragment in the cell; 25 °C; 20 mM Hepes pH 8.0, 150 mM NaCl, 1 mM TCEP
# T2 construct: αT-catenin, Mus musculus, N1-N2, aa 1-259; in pGEX-TEV; also called αT-catenin WT N1-N2; αT-catenin N1-N2 (1–259); source: E. coli BL21-Gold, purified (glutathione-agarose, TEV cleavage, Mono Q or Mono S, S200)
# T2 sequence (looked up): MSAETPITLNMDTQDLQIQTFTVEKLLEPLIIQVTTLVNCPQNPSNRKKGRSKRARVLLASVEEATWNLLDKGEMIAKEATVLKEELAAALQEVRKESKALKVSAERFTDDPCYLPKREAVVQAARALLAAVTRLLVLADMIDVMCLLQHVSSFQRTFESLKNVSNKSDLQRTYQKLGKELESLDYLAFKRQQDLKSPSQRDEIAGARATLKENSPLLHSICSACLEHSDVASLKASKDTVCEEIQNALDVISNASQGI
# [2] = target: T3, αT-catenin head region (aa 1–659) (Mus musculus, UniProt Q65CL1 1-659); experiment: as above
# T3 construct: αT-catenin, Mus musculus, head region (N- and M-domains), aa 1-659; in pGEX-TEV; also called αT-catenin head (1–659); αT-catenin N1-M3 (aa 1–659); source: E. coli BL21-Gold, purified (glutathione-agarose, TEV cleavage, Mono Q or Mono S, S200)
# T3 sequence (looked up): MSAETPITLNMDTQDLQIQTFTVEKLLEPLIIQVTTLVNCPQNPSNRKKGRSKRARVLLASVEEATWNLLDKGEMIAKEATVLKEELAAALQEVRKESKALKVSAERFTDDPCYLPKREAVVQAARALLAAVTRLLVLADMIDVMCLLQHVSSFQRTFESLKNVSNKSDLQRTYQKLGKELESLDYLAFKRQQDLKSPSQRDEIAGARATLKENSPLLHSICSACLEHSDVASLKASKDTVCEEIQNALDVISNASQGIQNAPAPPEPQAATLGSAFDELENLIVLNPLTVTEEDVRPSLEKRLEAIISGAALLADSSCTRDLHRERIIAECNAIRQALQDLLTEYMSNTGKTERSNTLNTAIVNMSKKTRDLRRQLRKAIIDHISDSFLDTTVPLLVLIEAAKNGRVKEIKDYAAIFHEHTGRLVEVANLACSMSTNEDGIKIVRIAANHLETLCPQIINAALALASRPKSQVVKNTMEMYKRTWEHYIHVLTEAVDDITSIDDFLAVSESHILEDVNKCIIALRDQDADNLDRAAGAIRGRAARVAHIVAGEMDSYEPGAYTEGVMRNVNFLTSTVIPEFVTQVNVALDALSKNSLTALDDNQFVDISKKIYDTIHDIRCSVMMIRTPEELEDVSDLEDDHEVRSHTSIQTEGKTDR
Binder,Kd (vinculin D1 (aa 1–259)) [nM],dH [1] [kcal/mol],dH [2] [kcal/mol]
"αE-catenin M1-M2 (aa 273–510) (domain or fragment, Mus musculus, UniProt P26231 273-510, looked up, αE-catenin, Mus musculus, M1-M2, aa 273-510; in pGEX-TEV; also called αE-catenin M1-M2 (273–510); source: E. coli BL21-Gold, purified (glutathione-agarose, TEV cleavage, Mono Q or Mono S, S200)) GSGGELAYALNNFDKQIIVDPLSFSEERFRPSLEERLESIISGAALMADSSCTRDDRRERIVAECNAVRQALQDLLSEYMGNAGRKERSDALNSAIDKMTKKTRDLRRQLRKAVMDHVSDSFLETNVPLLVLIEAAKNGNEKEVKEYAQVFREHANKLIEVANLACSISNNEEGVKLVRMSASQLEALCPQVINAALALAAKPQSKLAQENMDLFKEQWEKQVRVLTDAVDDITSIDD",31.9 ± 9.1,–,–
"β-catenin–N-cadherin cytoplasmic tail complex (complex, β-catenin, Mus musculus, full length; N-cadherin cytoplasmic tail (Ncad_(cyto)); the methods name no plasmid for the N-cadherin tail; also called β-catenin–Ncad_(cyto); β-cat–Ncad_(cyto); source: β-catenin: E. coli BL21-Gold, purified) chain 1: MATQADLMELDMAMEPDRKAAVSHWQQQSYLDSGIHSGATTTAPSLSGKGNPEEEDVDTSQVLYEWEQGFSQSFTQEQVADIDGQYAMTRAQRVRAAMFPETLDEGMQIPSTQFDAAHPTNVQRLAEPSQMLKHAVVNLINYQDDAELATRAIPELTKLLNDEDQVVVNKAAVMVHQLSKKEASRHAIMRSPQMVSAIVRTMQNTNDVETARCTAGTLHNLSHHREGLLAIFKSGGIPALVKMLGSPVDSVLFYAITTLHNLLLHQEGAKMAVRLAGGLQKMVALLNKTNVKFLAITTDCLQILAYGNQESKLIILASGGPQALVNIMRTYTYEKLLWTTSRVLKVLSVCSSNKPAIVEAGGMQALGLHLTDPSQRLVQNCLWTLRNLSDAATKQEGMEGLLGTLVQLLGSDDINVVTCAAGILSNLTCNNYKNKMMVCQVGGIEALVRTVLRAGDREDITEPAICALRHLTSRHQEAEMAQNAVRLHYGLPVVVKLLHPPSHWPLIKATVGLIRNLALCPANHAPLREQGAIPRLVQLLVRAHQDTQRRTSMGGTQQQFVEGVRMEEIVEGCTGALHILARDVHNRIVIRGLNTIPLFVQLLYSPIENIQRVAAGVLCELAQDKEAAEAIEAEGATAPLTELLHSRNEGVATYAAAVLFRMSEDKPQDYKKRLSVELTSSLFRTEPMAWNETADLGLDIGAQGEALGYRQDDPSYRSFHSGGYGQDALGMDPMMEHEMGGHHPGADYPVDGLPDLGHAQDLMDGLPPGDSNQLAWFDTDL chain 2: MKRRDKERQAKQLLIDPEDDVRDNILKYDEEGGGEEDQDYDLSQLQQPDTVEPDAIKPVGIRRLDERPIHAEPQYPVRSAAPHPGDIGDFINEGLKAADNDPTAPPYDSLLVFDYEGSGSTAGSLSSLNSSSSGGDQDYDYLNDWGPRFKKLADMYGGGDD",–,-18.9 ± 1,-27 ± 0.2
